Residue numbers refer to the chain shown, from its start.
B1: unnamed (protein)
chain: MKPENKLPVLDLISAEMKTVVNTLQPDLPPWPATGTIAEQRQYYTLERRFWNAGAPEMATRAYMVPTKYGQVETRLFCPQPDSPATLFYLHGGGFILGNLDTHDRIMRLLASYSQCTVIGIDYTLSPEARFPQAIEEIVAACCYFHQQAEDYQINMSRIGFAGDSAGAMLALASALWLRDKQIDCGKVAGVLLWYGLYGLRDSVTRRLLGGVWDGLTQQDLQMYEEAYLSNDADRESPYYCLFNNDLTREVPPCFIAGAEFDPLLDDSRLLYQTLAAHQQPCEFKLYPGTLHAFLHYSRMMKTADEALRDGAQFFTAQL
B2: unnamed (protein)
chain: B1 chain with G163A
B3: unnamed (protein)
chain: B1 chain with D266A
B4: unnamed (protein)
chain: B1 chain with D164A
B5: unnamed (protein)
chain: B1 chain with E128Q
B6: unnamed (protein)
chain: B1 chain with D262A
B7: unnamed (protein)
chain: B1 chain with G167A
B8: unnamed (protein)
chain: B1 chain with H103N

Substrate: p-NP-C4
Details: pH 7.1; 25 °C

B1 and B2 are the same in Km: 500 µM for the first, 500 µM for the second.

Going from B3 to B4, the Km rises from 500 µM to 1000 µM (2-fold).

B5 and B6 are within 1.5-fold of each other in Km: 350 µM for the first, 400 µM for the second.

Going from B7 to B8, the Km falls from 2000 µM to 250 µM (8-fold).

First: B1
Second: B2
The kcat of the first is 11-fold higher: 30.9 s⁻¹ for the first, 2.9 s⁻¹ for the second.

First: B3
Second: B4
The kcat of the first is 490-fold higher: 3.4 s⁻¹ for the first, 0.007 s⁻¹ for the second.

First: B5
Second: B6
The kcat of the first is 220-fold higher: 7.4 s⁻¹ for the first, 0.034 s⁻¹ for the second.

Compared with B7, B8 is 4.1-fold lower in kcat: 49.4 s⁻¹ for the first, 12.1 s⁻¹ for the second.

Compared with B1, B2 is 11-fold lower in kcat/Km: 61800 M⁻¹ s⁻¹ for the first, 5800 M⁻¹ s⁻¹ for the second.

First: B3
Second: B4
The kcat/Km of the first is 970-fold higher: 6800 M⁻¹ s⁻¹ for the first, 7 M⁻¹ s⁻¹ for the second.

Going from B5 to B6, the kcat/Km falls from 21100 M⁻¹ s⁻¹ to 85 M⁻¹ s⁻¹ (250-fold).

First: B7
Second: B8
The kcat/Km of the first is 2-fold lower: 24700 M⁻¹ s⁻¹ for the first, 48400 M⁻¹ s⁻¹ for the second.

From the PETadex activity labels (doi:10.1016/s0014-5793(99)00813-3)
